Data on eight molecules can be found in patent US20240262910A1 (Memorial Sloan Kettering, published 2024).

Substitutions are numbered along the chain they refer to.

The chains are these.
T1: mouse CD33 extracellular domain with 6xHis-tag (mouse, UniProt Q63994 18-240)
T1 construct: range 18-240; also called moCD33-His; moCD33(ECD)-His
T1 sequence: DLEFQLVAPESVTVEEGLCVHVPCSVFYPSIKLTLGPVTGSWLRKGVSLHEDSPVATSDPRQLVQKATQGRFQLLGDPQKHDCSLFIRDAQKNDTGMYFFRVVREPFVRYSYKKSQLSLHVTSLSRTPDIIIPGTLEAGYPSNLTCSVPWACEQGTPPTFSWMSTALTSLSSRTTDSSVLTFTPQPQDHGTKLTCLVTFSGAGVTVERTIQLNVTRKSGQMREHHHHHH

B1: 1-P13 (antibody, V domains shown)
VH: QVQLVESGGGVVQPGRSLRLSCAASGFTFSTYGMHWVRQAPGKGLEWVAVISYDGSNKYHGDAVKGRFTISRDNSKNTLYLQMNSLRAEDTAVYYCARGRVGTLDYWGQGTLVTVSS
VL: DVVMTQSPLSLPVSLGQPASISCRSSRGLVYSDVNTNLNWFQQRPGQSPRRLIYKVSNRDSGVPDRFSGSGSGTDFTLKISRVEAEDVGVYYCMQGTHWPWTFGQGTKVEIK
notes: AlivaMab mouse hybridoma antibody; also called 1-P13-A
B2: 2-F18 (antibody, V domains shown)
VH: QIQLVESGGGVVQPGRSLRLSCAASGFTFSAYPMHWVRQAPGKGLEWVAIISYDGSNNYYADSVKGRFTISRDNSKNTMYLQINSLRAEDTGVYYCARGKVGTLDFWGQGTLVTVSS
VL: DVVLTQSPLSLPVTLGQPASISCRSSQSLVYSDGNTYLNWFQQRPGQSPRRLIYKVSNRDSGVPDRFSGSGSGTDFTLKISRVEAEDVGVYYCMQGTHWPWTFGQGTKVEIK
notes: AlivaMab mouse hybridoma antibody; also called 2-F18-A
B3: 2-N3 (antibody, V domains shown)
VH: EVQLVQSGADVKKPGESLKISCKGSGFSFTSHWIAWVRQMPGKGLEWMGIIYPGDSDTRYSPSLQGRVTISADKSISTAYLQWSSLKASDTAMYFCARHETGNGYSYGMDVWGQGTTVTVSS
VL: DIVMTQSPLSLPVTPGEPASISCRSSQSLLHSNGYNYLDWYLQKPGQSPQLLFSLGSNRASGVPDRFSGSGSGTDFSLKISRVEAEDVGLYYCMQALQPPLTFGGGTKVEIK
notes: AlivaMab mouse hybridoma antibody; also called 2-N3-A
B4: 1-P23 (antibody, V domains shown)
VH: QVQLVESGGGVVQPGRSLRLSCAASGFTFNSYGMHWVRQAPGKGLEWVAIISYDGSNKYYADSVKGRFTISRDNSKNTLYLQMNSLRAEDTAVYYCARDNYDSSGYNWYFDLWGRGTLVTVSS
VL: SSELTQDPAVSVALGQTVRITCQGDSLRSYYASWYQQKPGQAPVLVIYGKNNRPSGIPDRFSGSSSGNTASLTITGAQAEDEADYYCNSRDSSGNLWVFGGGTKLTVL
notes: AlivaMab mouse hybridoma antibody; also called 1-P23-A
B5: 1-A20 (antibody, V domains shown)
VH: QVQLQESGPGLVKPSETLSLTCTVSGDSISSYYWSWIRQPAGKGLEWIGRIYTSGNTNYNPSLKSRVTMSVDKSKNQFSLKLRSVTAADTAVYYCARDGDNRDSDAFDIWGQGTMVTVSS
VL: SPGTLSLSPGERATLSCRASQNISSSYLAWCQQKPGQAPRLFIYGTSRRATGIPDRFSGSGSGTDFTLTISRLEPEDFAVYYCQQYGSSPLTFGGGTKVEIK
notes: AlivaMab mouse hybridoma antibody; also called 1-A20-A
B6: 1-H19 (antibody, V domains shown)
VH: B5 VH with D27G, S31T, K73T, F78L, D103N
VL: QSVLTQPPSVSGAPGQRVTISCTGSSSNIGAGYDVHWYQQLPGTAPKLLIYGNSNRPSGVPDRFSGSKSGTSASLAITGLQAEDEADYYCQSYDRSLSGWVFGGGTKLTVL
notes: AlivaMab mouse hybridoma antibody; also called 1-H19-A
B7: 1-J19 (hybridoma antibody) (antibody, V domains shown)
VH: QVQLQQSGPGLVKPSQTLSLTCAISGDSVSSNSAAWNWIRQSPSRGLEWLGRTYFRSKWYNVYAVSVKSRITINPDTSKNQFSLQLNSVTPEDTAVYYCASEGGSYYDHWGQGTLVTVSS
VL: DIQMTQSPSSVSASVGDRVTITCRASQGISNWLTWYQQKPGKAPKLLIYAASSLQSGVPSRFSGSGSGTDFTLTISSLQPEDFATYYCQQADSFPFTFGPGTKVDIK
notes: AlivaMab mouse hybridoma antibody; also called 1-J19-A
B8: H195 (lintuzumab) (antibody, V domains shown)
VH: QVQLVQSGAEVKKPGSSVKVSCKASGYTFTDYNMHWVRQAPGQGLEWIGYIYPYNGGTGYNQKFKSKATITADESTNTAYMELSSLRSEDTAVYYCARGRPAMDYWGQGTLVTVSS
VL: DIQMTQSPSSLSASVGDRVTITCRASESVDNYGISFMNWFQQKPGKAPKLLIYAASNQGSGVPSRFSGSGSGTDFTLTISSLQPDDFATYYCQQSKEVPWTFGQGTKVEIK

T5 sequence (P20138 140-364 limits assumed): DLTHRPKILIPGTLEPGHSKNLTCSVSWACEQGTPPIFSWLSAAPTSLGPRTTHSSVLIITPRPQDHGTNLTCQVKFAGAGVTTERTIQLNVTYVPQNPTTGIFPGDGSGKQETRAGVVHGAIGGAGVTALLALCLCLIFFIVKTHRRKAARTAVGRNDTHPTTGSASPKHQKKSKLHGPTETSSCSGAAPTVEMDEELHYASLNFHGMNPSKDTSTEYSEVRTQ

For one test, the target named is T2, human CD33, full length, on cells (human, UniProt P20138 18-364).
T2 construct: NIH-3T3 cells stably overexpressing full-length human CD33, or AML lines U937 and Set2 with endogenous CD33; the cell line is named under assay; also called 3T3-huCD33; 3T3-CD33
T2 sequence (P20138 18-364): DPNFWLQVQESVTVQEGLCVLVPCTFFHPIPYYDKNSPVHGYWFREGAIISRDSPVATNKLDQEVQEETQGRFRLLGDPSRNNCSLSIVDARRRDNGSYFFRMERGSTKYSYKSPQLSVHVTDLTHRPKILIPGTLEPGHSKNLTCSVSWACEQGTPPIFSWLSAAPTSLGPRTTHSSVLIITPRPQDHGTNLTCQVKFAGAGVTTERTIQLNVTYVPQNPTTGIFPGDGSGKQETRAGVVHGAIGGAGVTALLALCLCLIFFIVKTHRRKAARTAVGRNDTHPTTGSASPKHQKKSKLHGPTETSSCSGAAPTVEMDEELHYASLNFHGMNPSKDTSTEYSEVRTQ
Briefly: flow cytometry, purified mAb, Set2 cells. (In flow cytometry, cells or beads pass a laser one at a time.)
For the molecule B1, the midpoint of the response, the EC50, lay at 5 nM.

With B2, the EC50 – broadly, the midpoint of the concentration-response curve – came to 24.2 nM.

For B3, the concentration for a half-maximal effect (EC50) amounted to 0.466 nM.

As for B4, it took 1.4 nM to reach a half-maximal effect (EC50).

In the case of B5, the response was half-maximal at 0.4 nM (EC50).

On to B6, for which the midpoint of the response, the EC50, lay at 0.4 nM.

Turning to B7, the concentration for a half-maximal effect (EC50) was 7.93 nM.

The target in another test is T1, mouse CD33 extracellular domain with …. Briefly: ELISA on recombinant moCD33-His, purified hybridoma subclone antibody, readout RLU; antibody concentration not given. (In general: In an ELISA, binding on a coated surface is turned into a signal by an enzyme label.)
Turning to B1, the binding result is “no binding”.

Turning to B2, the binding result is “no binding”.

As to B3, the binding result was “no binding”.

With B4, the binding result is given as “no binding”.

For the molecule B5, the binding result was “no binding”.

B6: the binding result is given as “no binding”.

The target of another test is T3, human CD33 IgC2 type domain with 6xHis-tag (human, UniProt P20138 140-259).
T3 construct: Produced at LakePharma; also called huCD33IgC2-His; CD33 IgC2-6xHis
T3 sequence (P20138 other isoform, or with tags, fused parts or gaps): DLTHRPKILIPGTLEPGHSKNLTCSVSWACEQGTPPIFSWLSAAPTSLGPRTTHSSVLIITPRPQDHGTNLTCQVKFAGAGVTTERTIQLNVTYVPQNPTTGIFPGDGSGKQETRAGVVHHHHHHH
Briefly: ELISA, hybridoma supernatant.
On to B2, for which the RLU came to 20400 RLU.

B6 gave an RLU of 58900 RLU.

With B7, the RLU is 15200 RLU.

The target in a further test is T4, human CD33 extracellular domain with 6xHis-tag (human, UniProt P20138 18-259).
T4 construct: Bought (R&D Systems, Acro Biosystems); also called huCD33-His; huCD33(ECD)-His
T4 sequence (P20138 other isoform, or with tags, fused parts or gaps): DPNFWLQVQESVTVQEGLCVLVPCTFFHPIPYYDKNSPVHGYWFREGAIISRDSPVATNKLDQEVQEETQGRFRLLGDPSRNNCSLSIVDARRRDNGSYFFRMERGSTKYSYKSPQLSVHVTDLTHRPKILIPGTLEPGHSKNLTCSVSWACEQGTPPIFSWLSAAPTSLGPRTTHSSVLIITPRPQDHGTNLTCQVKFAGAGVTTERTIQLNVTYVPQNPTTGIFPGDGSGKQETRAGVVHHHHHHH
Briefly: ELISA, hybridoma supernatant.
For B1, the RLU was determined as 117000 RLU.

B2 showed an RLU of 251000 RLU.

B3 displayed an RLU of 724000 RLU.

The molecule B4 had an RLU of 41800 RLU.

B5: the RLU stood at 117000 RLU.

B6 came in with an RLU of 132000 RLU.

In turn, B7 gave an RLU of 95600 RLU.

Another test has as its target T5, human CD33 IgC2 domain only, on NIH-3T3 cells (human, UniProt P20138 140-364).
T5 construct: the whole entry is named here; also called 3T3-huCD33IgC2; 3T3 CD33-IgC2
Nature of the test: flow cytometry, hybridoma supernatant, 3T3-huCD33IgC2 cells, MFI.
As for B3, the binding result is “no binding (tested: A signal >100,000 was used as cut off)”.

With B4, the binding result is reported as “no binding (tested: A signal >100,000 was used as cut off)”.

B5: the binding result was “no binding (tested: A signal >100,000 was used as cut off)”.

B7: the binding result was “no binding (tested: A signal >100,000 was used as cut off)”.

The target in the next test is T4, human CD33 extracellular domain with …. Briefly: BLI (Octet Red96e), antibody on anti-huFc sensor, huCD33-His as analyte, 1:1 fit. On the procedure:
The binding affinity to human CD33 protein was measured by biolayer interferometry (BLI) using an Octet Red96e. All experiments were carried out using kinetic buffer (PBS pH 7.4, 0.01% BSA, 0.002% Tween-20). The antibodies were captured by an anti-huFc biosensor and a 7-point, 2-fold dilution series of huCD33-His was used as analyte. The data was processed by double reference subtraction, and response curves were globally fit to a 1:1 Langmuir binding model. […] The binding affinities are similar to the H195 reference antibody.
In general terms: Biolayer interferometry detects binding as a change in optical thickness at a sensor tip.
Regarding B8, the Kd – broadly, the free concentration of one partner at which half of the binding sites on the other are occupied at equilibrium, for simple one-to-one binding – came out at 1.22 nM and the kon (as a rule, the rate constant with which the complex forms) turned out to be 358000 M⁻¹ s⁻¹.

The target in another test is T2, human CD33, full length, on cells. Nature of the test: flow cytometry, hybridoma supernatant, U937 cells.
B1: the MFI is 559000 MFI.

As for B2, the MFI amounted to 351000 MFI.

The molecule B3 registered an MFI of 409000 MFI.

Consider B4, for which the MFI turned out to be 456000 MFI.

Take B5: the MFI was 558000 MFI.

On to B6, for which the MFI stood at 479000 MFI.

Molecule B7 registered an MFI of 339000 MFI.

The next test deals with T3, human CD33 IgC2 type domain with …. Nature of the test: ELISA, hybridoma supernatant, RLU.
On to B1, for which the binding result is “no binding”.

In the case of B3, the binding result was “no binding”.

As for B4, the binding result is “no binding”.

As for B5, the binding result is “no binding”.

The target of the next test is T2, human CD33, full length, on cells. Nature of the test: flow cytometry, 3T3-CD33 cells. Here is the method: (§1) Binding to CD33 on Cells. To assess the binding of TDI-Y-006, TDI-Y-007 and 1J19 to cell surface-bound CD33, 3T3 cells overexpressing CD33, as well as the U937 AML cell line, which expresses endogenous CD33, were used. U937 CD33KO or NALM6 were included as negative controls. Briefly, NALM6, U937 CD33+ and KO cells were blocked with human IgG Fc for 20 minutes on ice. The recombinant antibodies were then serially diluted starting at 100 μg/mL concentration and added for 30 minutes on ice. AlexaFluor 647-conjugated goat anti-human F(ab′)2 was added to cells for 30 minutes on ice, washed and analyzed by flow cytometry, normalized to secondary only staining (MFI ratio). EC50 values were determined by non-linear regression.
As to B8, a half-maximal response (EC50) required 4.8 nM.

For the next test the target is unchanged. Briefly: flow cytometry, purified mAb, U937 cells.
With B1, the EC50 is 6.33 nM. This lies in the single-digit nanomolar range.

Molecule B2 yielded an EC50 of 11.9 nM. Against the preceding molecule, the EC50 is about 1.9-fold higher.

B3: the concentration for a half-maximal effect (EC50) came to 0.4 nM.

For the molecule B4, the midpoint of the response, the EC50, lay at 1.07 nM. Against the preceding molecule, the EC50 is about 2.7-fold higher.

B5 came in with a concentration giving a half-maximal response (EC50) of 0.6 nM. Compared with the last molecule, the EC50 is about 1.8-fold lower.

In turn, B6 gave a concentration for a half-maximal effect (EC50) of 0.866 nM.

With B7, the EC50 stood at 10.2 nM.

The target is the same in a further test. Nature of the test: flow cytometry, hybridoma supernatant, 3T3-huCD33 cells.
Molecule B1 returned an MFI of 2.15e+06 MFI.

B2 came in with an MFI of 3.56e+06 MFI.

In turn, B3 showed an MFI of 4.21e+06 MFI.

B4 yielded an MFI of 4.08e+06 MFI.

B5: the MFI came out at 1.98e+06 MFI.

Molecule B6 gave an MFI of 1.75e+06 MFI.

The molecule B7 showed an MFI of 3.86e+06 MFI.

A further test concerns the target T4, human CD33 extracellular domain with …. Nature of the test: BLI, huCD33-His on anti-penta-His sensor, no competitor. Here is the method:
Epitope Binning. Epitope binning was carried out by a BLI competition experiment using an Octet Red96e. Human CD33-His was captured by an anti-penta-His biosensor. A 4×4 matrix with TDI-Y-006, TDI-Y-007, 1J19 and H195 was tested. A reference biosensor was used to determine the overall capture level for each antibody. After pre-binding the antibodies at saturation levels, the biosensors were dipped into antibody solutions to assess competition. […] However, when TDI-Y-006 was pre-bound, binding of TDI-Y-007 was blocked. […] Similarly, 1J19 and H195 have epitopes that partially overlap. No competition was observed between antibodies binding to the membrane-proximal IgC2 domain (TDI-Y-006 and TDI-Y-007) and antibodies binding to the membrane-distal IgV domain (1J19 and H195).
Turning to B8, the “BLI total binding capacity (Reference Biosensor)” value amounted to 0.743.

A further test deals with T2, human CD33, full length, on cells. Nature of the test: flow cytometry, U937 cells. Here is the method: as §1
Molecule B8 displayed an EC50 of 0.4 nM.
